Here are results for 7 molecules from patent US20150344570A1 (published 2015).

Assay [1] deals with T1, FcγRIIb extracellular domain with C-terminal His tag (human, UniProt P31994 43-217).
T1 construct: extracellular domain; expressed in FreeStyle293 cells; analyte in Biacore; also called FcgRIIb; 2b
T1 sequence (looked up): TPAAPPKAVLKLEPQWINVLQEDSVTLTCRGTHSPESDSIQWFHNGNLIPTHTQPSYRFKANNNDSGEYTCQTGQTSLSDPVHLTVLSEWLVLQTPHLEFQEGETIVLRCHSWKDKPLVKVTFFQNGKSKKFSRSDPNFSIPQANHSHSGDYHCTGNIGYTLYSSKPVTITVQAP
The assay is described as follows: SPR (Biacore), captured antibody, FcγR as analyte; relative binding. On the technique in general: Surface plasmon resonance follows binding to a sensor surface in real time, without labels.

Assay [2] addresses T2, FcγRIa extracellular domain with C-terminal His tag (human, UniProt P12314 16-292).
T2 construct: extracellular domain; expressed in FreeStyle293 cells; analyte in Biacore; also called FcgRI; 1a
The assay is described as above.

In assay [3] the target is T2, FcγRIa extracellular domain with …. The assay is described as follows: SPR (Biacore); He/Con_1a divided by He/Con_2b (FcγRIIb as reference).

T2 sequence (P12314 16-292): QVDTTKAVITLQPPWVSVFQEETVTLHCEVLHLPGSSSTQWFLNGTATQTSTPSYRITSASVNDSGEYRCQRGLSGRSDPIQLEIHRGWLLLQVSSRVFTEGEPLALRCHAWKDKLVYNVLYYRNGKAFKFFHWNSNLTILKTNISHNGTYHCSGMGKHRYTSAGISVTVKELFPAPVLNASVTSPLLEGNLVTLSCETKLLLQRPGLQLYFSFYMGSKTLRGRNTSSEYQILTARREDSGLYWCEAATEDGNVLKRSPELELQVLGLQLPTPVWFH

B1: GpH7-A5/GpH7-B3 variant D265_08L/GpL16-k0 (antibody, human IgG1, kappa)
heavy 1: not shown
heavy 2: not shown
light: DIVMTQSPLSLPVTPGEPASISCQASESLVHSNRNTYLHWYLQKPGQSPQLLIYKVSNRFSGVPDRFSGSGSGTDFTLKISRVEAEDVGVYYCSQNTHVPPTFGQGTKVEIERTVAAPSVFIFPPSDEQLKSGTASVVCLLNNFYPREAKVQWKVDNALQSGNSQESVTEQDSKDSTYSLSSTLTLSKADYEKHKVYACEVTHQGLSSPVTKSFNRGEC
notes: He Ab; IgG1, mutation in one H chain
Turning to B1, the He/Con_2b in assay [1] was 4.6 % of HeCon Ab (GpH7-A5/GpH7-B3/GpL16-k0 = 100). In addition, in assay [2], the He/Con_1a is 56.8 % of HeCon Ab (GpH7-A5/GpH7-B3/GpL16-k0 = 100). In addition, the “He_1a/2b (Ia/IIb)” value in assay [3] worked out at 12.4 ratio.

B2: GpH7-A5/GpH7-B3 variant D265_12R/GpL16-k0 (antibody, human IgG1, kappa)
heavy 1: not shown
heavy 2: not shown
light: DIVMTQSPLSLPVTPGEPASISCQASESLVHSNRNTYLHWYLQKPGQSPQLLIYKVSNRFSGVPDRFSGSGSGTDFTLKISRVEAEDVGVYYCSQNTHVPPTFGQGTKVEIERTVAAPSVFIFPPSDEQLKSGTASVVCLLNNFYPREAKVQWKVDNALQSGNSQESVTEQDSKDSTYSLSSTLTLSKADYEKHKVYACEVTHQGLSSPVTKSFNRGEC
notes: as for B1
For the molecule B2, the He/Con_2b in assay [1] is 15 % of HeCon Ab (GpH7-A5/GpH7-B3/GpL16-k0 = 100). For the same molecule, the He/Con_1a in assay [2] is 44.3 % of HeCon Ab (GpH7-A5/GpH7-B3/GpL16-k0 = 100). In assay [3], the “He_1a/2b (Ia/IIb)” value is 2.96 ratio.

B3: GpH7-A5/GpH7-B3 variant D265_15Y/GpL16-k0 (antibody, human IgG1, kappa)
heavy 1: not shown
heavy 2: not shown
light: DIVMTQSPLSLPVTPGEPASISCQASESLVHSNRNTYLHWYLQKPGQSPQLLIYKVSNRFSGVPDRFSGSGSGTDFTLKISRVEAEDVGVYYCSQNTHVPPTFGQGTKVEIERTVAAPSVFIFPPSDEQLKSGTASVVCLLNNFYPREAKVQWKVDNALQSGNSQESVTEQDSKDSTYSLSSTLTLSKADYEKHKVYACEVTHQGLSSPVTKSFNRGEC
notes: as for B1
Turning to B3, the He/Con_2b in assay [1] was 0.6 % of HeCon Ab (GpH7-A5/GpH7-B3/GpL16-k0 = 100). Further, in assay [2], the He/Con_1a is 44.3 % of HeCon Ab (GpH7-A5/GpH7-B3/GpL16-k0 = 100). For the same molecule, in assay [3], the “He_1a/2b (Ia/IIb)” value was determined as 73.5 ratio.

B4: GpH7-A5/GpH7-B3 variant D265_11K/GpL16-k0 (antibody, human IgG1, kappa)
heavy 1: not shown
heavy 2: not shown
light: DIVMTQSPLSLPVTPGEPASISCQASESLVHSNRNTYLHWYLQKPGQSPQLLIYKVSNRFSGVPDRFSGSGSGTDFTLKISRVEAEDVGVYYCSQNTHVPPTFGQGTKVEIERTVAAPSVFIFPPSDEQLKSGTASVVCLLNNFYPREAKVQWKVDNALQSGNSQESVTEQDSKDSTYSLSSTLTLSKADYEKHKVYACEVTHQGLSSPVTKSFNRGEC
notes: as for B1
Consider B4, for which the He/Con_2b in assay [1] is 14.9 % of HeCon Ab (GpH7-A5/GpH7-B3/GpL16-k0 = 100). Further, the He/Con_1a in assay [2] was 43.2 % of HeCon Ab (GpH7-A5/GpH7-B3/GpL16-k0 = 100). In addition, the “He_1a/2b (Ia/IIb)” value in assay [3] is 2.9 ratio.

B5: GpH7-A5/GpH7-B3 variant D265_13S/GpL16-k0 (antibody, human IgG1, kappa)
heavy 1: not shown
heavy 2: not shown
light: DIVMTQSPLSLPVTPGEPASISCQASESLVHSNRNTYLHWYLQKPGQSPQLLIYKVSNRFSGVPDRFSGSGSGTDFTLKISRVEAEDVGVYYCSQNTHVPPTFGQGTKVEIERTVAAPSVFIFPPSDEQLKSGTASVVCLLNNFYPREAKVQWKVDNALQSGNSQESVTEQDSKDSTYSLSSTLTLSKADYEKHKVYACEVTHQGLSSPVTKSFNRGEC
notes: as for B1
For the molecule B5, the He/Con_2b in assay [1] is 11.3 % of HeCon Ab (GpH7-A5/GpH7-B3/GpL16-k0 = 100). Moreover, in assay [2], the He/Con_1a was 68.7 % of HeCon Ab (GpH7-A5/GpH7-B3/GpL16-k0 = 100). Further, the “He_1a/2b (Ia/IIb)” value in assay [3] was 6.07 ratio.

B6: GpH7-A5/GpH7-B3 variant D265_10E/GpL16-k0 (antibody, human IgG1, kappa)
heavy 1: not shown
heavy 2: not shown
light: DIVMTQSPLSLPVTPGEPASISCQASESLVHSNRNTYLHWYLQKPGQSPQLLIYKVSNRFSGVPDRFSGSGSGTDFTLKISRVEAEDVGVYYCSQNTHVPPTFGQGTKVEIERTVAAPSVFIFPPSDEQLKSGTASVVCLLNNFYPREAKVQWKVDNALQSGNSQESVTEQDSKDSTYSLSSTLTLSKADYEKHKVYACEVTHQGLSSPVTKSFNRGEC
notes: as for B1
With B6, the He/Con_2b in assay [1] is 38.2 % of HeCon Ab (GpH7-A5/GpH7-B3/GpL16-k0 = 100). For the same molecule, in assay [2], the He/Con_1a was 101 % of HeCon Ab (GpH7-A5/GpH7-B3/GpL16-k0 = 100). In addition, in assay [3], the “He_1a/2b (Ia/IIb)” value is 2.66 ratio.

B7: GpH7-A5/GpH7-B3 variant D265_14T/GpL16-k0 (antibody, human IgG1, kappa)
heavy 1: not shown
heavy 2: not shown
light: DIVMTQSPLSLPVTPGEPASISCQASESLVHSNRNTYLHWYLQKPGQSPQLLIYKVSNRFSGVPDRFSGSGSGTDFTLKISRVEAEDVGVYYCSQNTHVPPTFGQGTKVEIERTVAAPSVFIFPPSDEQLKSGTASVVCLLNNFYPREAKVQWKVDNALQSGNSQESVTEQDSKDSTYSLSSTLTLSKADYEKHKVYACEVTHQGLSSPVTKSFNRGEC
notes: as for B1
In the case of B7, in assay [1], the He/Con_2b was 16 % of HeCon Ab (GpH7-A5/GpH7-B3/GpL16-k0 = 100). Further, in assay [2], the He/Con_1a is 78.5 % of HeCon Ab (GpH7-A5/GpH7-B3/GpL16-k0 = 100). The “He_1a/2b (Ia/IIb)” value in assay [3] turned out to be 4.9 ratio.
